According to US20070161569A1 (GENERAL HOSPITAL, published 2007):
Where “and” joins values, the source holds several entries; their conditions need not be identical. Equal entries are not always repeated. Non-standard residues stand in square brackets, D forms with d. No end group written: not given here. hArg = N=C(N)NCCCC[C@H](N)C(=O)O; Ac5c = NC1(C(=O)O)CCCC1; Deg = CCC(N)(CC)C(=O)O; Ac3c = NC1(C(=O)O)CC1; Aib = CC(C)(N)C(=O)O

Key:
[1] = molecular target: T1, recombinant P1R chimera expressed in HKRK-B28 cells (opossum P1R from the N-terminus to the mid region of … (opossum; rat, UniProt P25107 27-288; P25961 295-591, limits assumed); test: cell-based or functional assay
[2] = molecular target: T1, recombinant P1R chimera expressed in …; test: competition binding on B28 cells against 125I-PTH(1-21) tracer (SEQ ID NO 36)
Protocol: Competition Binding. Binding reactions were performed with HKRK-B28 cells or in COS-7 cells in 24-well plates. The cells were rinsed with 0.5 mL of binding buffer, and then treated successively with 100 μL binding buffer, 100 μL of binding buffer containing various amounts of unlabeled competitor ligand, and 100 μL of binding buffer containing ca. 100,000 cpm of ¹²⁵I-[Aib^{1,3},Nle⁸,Gln¹⁰,Har¹¹,Ala¹²,Trp¹⁴,Arg¹⁹,Tyr²¹]rPTH(1-21) (SEQ. ID. NO. 36) (ca. 26 fmol; final volume=300 μL). Incubations were 4 to 6 h at 4° C., at which time near equilibrium conditions were attained. Cells were then placed on ice, the binding medium was removed, and the monolayer was rinsed three times with 0.5 mL of cold binding buffer. The cells were subsequently lysed with 0.5 mL 5N NaOH and counted for radioactivity. For each tracer and in each experiment, the non-specific binding was determined as the radioactivity that bound in the presence of the same unlabeled peptide at a concentration of 1 μM, and was ˜1% of total radioactivity added for each tracer. The maximum specific binding (B₀) was the total radioactivity bound in the absence of competing ligand, corrected for nonspecific binding, and for each tracer, ranged from 8% to 20% of the total radioactivity added. Nonlinear regression was used to calculate binding IC₅₀ values (see below). Scatchard transformations of homologous competition binding data derived from studies with 26 fmol of ¹²⁵I-[Aib^{1,3},Nle⁸,Gln¹⁰,Har¹¹,Ala¹²,Trp¹⁴, Arg¹⁹,Tyr²¹]rPTH(1-21) (SEQ. ID. NO. 36) were employed for estimations of apparent equilibrium dissociation constant (kDapps) and total number of ligand binding sites (Bₘₐₓ), assuming a single class of binding sites and equal affinities of the iodinated and non iodinated ligand.

[3] = molecular target: T2, P1R-delNt, a recombinant human PTH-1 receptor construct in which most of the amino-terminal extracellular … (human, UniProt Q03431 23-593, limits assumed); test: cell-based or functional assay
T2 sequence (looked up): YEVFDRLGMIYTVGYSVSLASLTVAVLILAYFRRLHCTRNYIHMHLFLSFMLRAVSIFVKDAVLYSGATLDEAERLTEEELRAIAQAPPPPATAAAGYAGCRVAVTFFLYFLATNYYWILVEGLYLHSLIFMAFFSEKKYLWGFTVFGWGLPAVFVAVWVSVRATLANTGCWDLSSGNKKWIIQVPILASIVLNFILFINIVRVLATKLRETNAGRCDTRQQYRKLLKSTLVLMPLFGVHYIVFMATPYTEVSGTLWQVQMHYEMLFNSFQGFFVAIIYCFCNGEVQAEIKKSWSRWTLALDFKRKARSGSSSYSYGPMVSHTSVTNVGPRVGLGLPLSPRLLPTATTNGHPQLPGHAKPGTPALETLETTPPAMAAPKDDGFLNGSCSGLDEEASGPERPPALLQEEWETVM

T1 sequence (P25107 other isoform, or with tags, fused parts or gaps limits assumed): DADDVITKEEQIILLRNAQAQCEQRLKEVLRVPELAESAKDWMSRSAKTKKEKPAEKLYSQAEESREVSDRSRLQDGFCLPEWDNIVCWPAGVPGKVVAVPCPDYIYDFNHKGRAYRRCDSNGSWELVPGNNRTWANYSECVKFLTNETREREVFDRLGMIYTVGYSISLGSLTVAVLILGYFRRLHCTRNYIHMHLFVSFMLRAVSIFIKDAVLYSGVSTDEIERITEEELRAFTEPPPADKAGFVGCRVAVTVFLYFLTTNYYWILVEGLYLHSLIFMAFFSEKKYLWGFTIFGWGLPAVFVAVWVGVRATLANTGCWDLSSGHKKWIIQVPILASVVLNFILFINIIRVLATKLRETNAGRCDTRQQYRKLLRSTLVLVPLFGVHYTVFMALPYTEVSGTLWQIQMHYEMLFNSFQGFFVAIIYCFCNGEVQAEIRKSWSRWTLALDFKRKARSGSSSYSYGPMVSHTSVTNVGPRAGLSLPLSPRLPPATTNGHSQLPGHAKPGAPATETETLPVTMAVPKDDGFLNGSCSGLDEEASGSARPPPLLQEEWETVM

B1: [Deg^1,M]PTH(1-14) (peptide)
peptide: [Deg]VAEIQLMHQ[hArg]AKW-NH2
modifications: N-terminus assumed
SMILES: CC[C@H](C)[C@H](NC(=O)[C@H](CCC(=O)O)NC(=O)[C@H](C)NC(=O)[C@@H](NC(=O)C(N)(CC)CC)C(C)C)C(=O)N[C@@H](CCC(N)=O)C(=O)N[C@@H](CC(C)C)C(=O)N[C@@H](CCSC)C(=O)N[C@@H](Cc1c[nH]cn1)C(=O)N[C@@H](CCC(N)=O)C(=O)N[C@@H](CCCCNC(=N)N)C(=O)N[C@@H](C)C(=O)N[C@@H](CCCCN)C(=O)N[C@@H](Cc1c[nH]c2ccccc12)C(N)=O
Question: Which “cAMP accumulation, fold more potent than the parent analog” value [1] does the source give for B1 here?
Answer: 11 fold

B2: [Aib^1,3,Gln^10]PTH(1-10)NH2 (peptide)
peptide: [Aib]V[Aib]EIQLMHQ-NH2
modifications: N-terminus assumed
SMILES: CC[C@H](C)[C@H](NC(=O)[C@H](CCC(=O)O)NC(=O)C(C)(C)NC(=O)[C@@H](NC(=O)C(C)(C)N)C(C)C)C(=O)N[C@@H](CCC(N)=O)C(=O)N[C@@H](CC(C)C)C(=O)N[C@@H](CCSC)C(=O)N[C@@H](Cc1c[nH]cn1)C(=O)N[C@@H](CCC(N)=O)C(N)=O
Question: B2 was tested. Which “increase in cAMP accumulation, peptide at 1×10^-4M” value [1] did it give?
Answer: 2 fold

B3: [M]PTH(1-14) analog in which alanine-3 is substituted with α,α-diethylglycine (Deg) (peptide)
peptide: H-AV[Deg]EIQLMHQ[hArg]AKW-NH2
SMILES: CC[C@H](C)[C@H](NC(=O)[C@H](CCC(=O)O)NC(=O)C(CC)(CC)NC(=O)[C@@H](NC(=O)[C@H](C)N)C(C)C)C(=O)N[C@@H](CCC(N)=O)C(=O)N[C@@H](CC(C)C)C(=O)N[C@@H](CCSC)C(=O)N[C@@H](Cc1c[nH]cn1)C(=O)N[C@@H](CCC(N)=O)C(=O)N[C@@H](CCCCNC(=N)N)C(=O)N[C@@H](C)C(=O)N[C@@H](CCCCN)C(=O)N[C@@H](Cc1c[nH]c2ccccc12)C(N)=O
notes: also called Deg^3-containing analog; Deg-3
Question: With B3 as the binder, how does the IC50 [2] read?
Answer: ~3 µM

Question: What about the “fold improved affinity relative to the parent [M]PTH(1-14)” value [2] of the same binder?
Answer: ~1.5 fold

Question: And the “cAMP-stimulating potency, fold diminished against the parent analog” value [1]?
Answer: ~10 fold

Question: And the “signaling potency, fold diminished relative to parent [M]PTH(1-14)” value [1]?
Answer: ~40 fold

B4: [Ac5c^1,Aib^3]PTH(1-9)NH2 (peptide)
peptide: [Ac5c]V[Aib]EIQLMH-NH2
modifications: N-terminus assumed
SMILES: CC[C@H](C)[C@H](NC(=O)[C@H](CCC(=O)O)NC(=O)C(C)(C)NC(=O)[C@@H](NC(=O)C1(N)CCCC1)C(C)C)C(=O)N[C@@H](CCC(N)=O)C(=O)N[C@@H](CC(C)C)C(=O)N[C@@H](CCSC)C(=O)N[C@@H](Cc1c[nH]cn1)C(N)=O
Question: With B4 as the binder, how does the “increase in cAMP levels relative to basal, peptide at 1×10^-4M” value [1] read?
Answer: 6 fold

B5: [Aib^1,3,Gln^10,Har^11,Ala^12,Trp^14]PTH(1-14)NH2 (peptide)
peptide: [Aib]V[Aib]EIQLMHQ[hArg]AKW-NH2
modifications: N-terminus assumed
SMILES: CC[C@H](C)[C@H](NC(=O)[C@H](CCC(=O)O)NC(=O)C(C)(C)NC(=O)[C@@H](NC(=O)C(C)(C)N)C(C)C)C(=O)N[C@@H](CCC(N)=O)C(=O)N[C@@H](CC(C)C)C(=O)N[C@@H](CCSC)C(=O)N[C@@H](Cc1c[nH]cn1)C(=O)N[C@@H](CCC(N)=O)C(=O)N[C@@H](CCCCNC(=N)N)C(=O)N[C@@H](C)C(=O)N[C@@H](CCCCN)C(=O)N[C@@H](Cc1c[nH]c2ccccc12)C(N)=O
Question: Which “cAMP EC50 in LdelNt-2 cells” value [3] does the source give for B5 here?
Answer: 0.0064 µM

B6: [M]PTH(1-14) analog in which alanine-3 is substituted with 1-aminocyclopentane-1-carboxylic acid (Ac5c) (peptide)
peptide: AV[Ac5c]EIQLMHQ[hArg]AKW-NH2
modifications: N-terminus assumed
SMILES: CC[C@H](C)[C@H](NC(=O)[C@H](CCC(=O)O)NC(=O)C1(NC(=O)[C@@H](NC(=O)[C@H](C)N)C(C)C)CCCC1)C(=O)N[C@@H](CCC(N)=O)C(=O)N[C@@H](CC(C)C)C(=O)N[C@@H](CCSC)C(=O)N[C@@H](Cc1c[nH]cn1)C(=O)N[C@@H](CCC(N)=O)C(=O)N[C@@H](CCCCNC(=N)N)C(=O)N[C@@H](C)C(=O)N[C@@H](CCCCN)C(=O)N[C@@H](Cc1c[nH]c2ccccc12)C(N)=O
notes: also called Ac5c^3-containing analog; Ac5c-3
Question: B6 was tested. Which IC50 [2] did it give?
Answer: ~3 µM

Question: And the “cAMP-stimulating potency, fold increase over the parent analog” value [1]?
Answer: < 2 fold

B7: [Ac5c^1,Aib^3,Gln^10]PTH(1-10)NH2 (peptide)
peptide: [Ac5c]V[Aib]EIQLMHQ-NH2
modifications: N-terminus assumed
SMILES: CC[C@H](C)[C@H](NC(=O)[C@H](CCC(=O)O)NC(=O)C(C)(C)NC(=O)[C@@H](NC(=O)C1(N)CCCC1)C(C)C)C(=O)N[C@@H](CCC(N)=O)C(=O)N[C@@H](CC(C)C)C(=O)N[C@@H](CCSC)C(=O)N[C@@H](Cc1c[nH]cn1)C(=O)N[C@@H](CCC(N)=O)C(N)=O
Question: How did the “cAMP EC50 in HKRK-B28 cells” value [1] turn out when B7 was run?
Answer: ~3 µM

Question: And the “increase in cAMP levels relative to basal, peptide at 10 µM, HKRK-B28 cells” value [1]?
Answer: 33 fold

Question: What about the “cAMP EC50 in LdelNt-2 cells” value [3] of the same binder?
Answer: ~40 µM and 37 µM

B8: [Ac5c^1,M]PTH(1-14) (peptide)
peptide: [Ac5c]VAEIQLMHQ[hArg]AKW-NH2
modifications: N-terminus assumed
SMILES: CC[C@H](C)[C@H](NC(=O)[C@H](CCC(=O)O)NC(=O)[C@H](C)NC(=O)[C@@H](NC(=O)C1(N)CCCC1)C(C)C)C(=O)N[C@@H](CCC(N)=O)C(=O)N[C@@H](CC(C)C)C(=O)N[C@@H](CCSC)C(=O)N[C@@H](Cc1c[nH]cn1)C(=O)N[C@@H](CCC(N)=O)C(=O)N[C@@H](CCCCNC(=N)N)C(=O)N[C@@H](C)C(=O)N[C@@H](CCCCN)C(=O)N[C@@H](Cc1c[nH]c2ccccc12)C(N)=O
notes: also called Ac5c (position 1) analog; Ac5c^1 modification
Question: Which “fold improved affinity relative to the parent [M]PTH(1-14)” value [2] does the source give for B8 here?
Answer: 50 fold

Question: What about the “cAMP accumulation, fold more potent than the parent analog” value [1] of the same binder?
Answer: 61 fold

Question: And the “cAMP potency, fold improvement relative to parent [M]PTH(1-14)” value [1]?
Answer: ~35 fold

B9: [Ac3c^1,M]PTH(1-14) (peptide)
peptide: [Ac3c]VAEIQLMHQ[hArg]AKW-NH2
modifications: N-terminus assumed
SMILES: CC[C@H](C)[C@H](NC(=O)[C@H](CCC(=O)O)NC(=O)[C@H](C)NC(=O)[C@@H](NC(=O)C1(N)CC1)C(C)C)C(=O)N[C@@H](CCC(N)=O)C(=O)N[C@@H](CC(C)C)C(=O)N[C@@H](CCSC)C(=O)N[C@@H](Cc1c[nH]cn1)C(=O)N[C@@H](CCC(N)=O)C(=O)N[C@@H](CCCCNC(=N)N)C(=O)N[C@@H](C)C(=O)N[C@@H](CCCCN)C(=O)N[C@@H](Cc1c[nH]c2ccccc12)C(N)=O
Question: How did the “cAMP accumulation, fold more potent than the parent analog” value [1] turn out when B9 was run?
Answer: ~2 fold
